Patent US7727950B2, “Methods and reagents for assaying protein kinase activity” (The University of Dundee, priority 2002, dated 2010)

Assays:
Assay in all cases: Kinetic parameters for peptide phosphorylation, radioactive filter-binding assay
[1] = substrate: CC(C)C[C@H](NC(=O)[C@@H](NC(=O)[C@H](CCCNC(=N)N)NC(=O)[C@H](C)NC(=O)[C@@H](N)CCCNC(=N)N)[C@@H](C)O)C(=O)N[C@@H](CO)C(=O)N[C@@H](Cc1ccccc1)C(=O)N[C@@H](C)C(=O)N[C@@H](CCC(=O)O)C(=O)N1CCC[C@H]1C(=O)NCC(=O)O; type: biochemical, human; conditions: other: PRAK; Standard Substrate = …; 30.0 °C
Source text: (§1) Apart from the AMP-activated protein kinase (AMPK, a gift from Drs S. Hawley and D. G. Hardie), cGMP-dependent protein kinase (PKG, a generous gift from Drs Susan Lohmann and Ulrich Walter, University of Wurzburg, Germany) and the catalytic subunit of cyclic AMP-dependent protein kinase (PKA, a gift from Dr C. Smythe), which were isolated from rat liver, bovine lung and bovine heart, respectively, all other protein kinases were expressed as either GST-fusion or His-tagged proteins (by a person, a person, Dr A. Paterson or a person, in this Division). The expressed proteins all corresponded to the human sequences apart from the rat Rho-dependent protein kinase (ROCK-II) and rat mitogen-activated protein kinase (MAPK) activated kinase-1a (MAPKAP-K1a, also called RSK). GST-fusion proteins were purified on GSH-agarose (Amersham Pharmacia Biotech, Amersham, UK) and His-tagged proteins on Ni-NTA agarose (Qiagen) essentially according to the manufacturer's instructions. All the protein kinases used in this study are available from Upstate Biotechnology Inc. (Lake Placid, N.Y., USA), apart from the α-isoform of calmodulin-dependent protein kinase II (CaMKII), MAPKAP-K3 and PKG. […]
(§2) All protein kinase assays were linear with respect to time. […] All papers were subsequently washed a further three times in phosphoric acid, once in acetone, then dried and counted for radioactivity. […] The plates were then washed six times (five min per wash) in PBS, 0.1% Tween 20 and binding of the phospho-specific antibody detected by incubating the plates with peroxidase-conjugated anti-sheep antibodies (Pierce). […] Signals were quantitated on LAS-1000IR software (FujiFilm). […]

[2] = substrate: CC(C)C[C@H](NC(=O)[C@H](CCCCN)NC(=O)[C@@H](N)CCCCN)C(=O)N[C@@H](CC(N)=O)C(=O)N[C@@H](CCCNC(=N)N)C(=O)N[C@H](C(=O)N[C@@H](CC(C)C)C(=O)N[C@@H](CO)C(=O)N[C@@H](Cc1ccccc1)C(=O)N[C@@H](C)C(=O)N[C@@H](CCC(=O)O)C(=O)N1CCC[C@H]1C(=O)NCC(=O)O)[C@@H](C)O; type: biochemical, human; conditions: 30.0 °C
Source text: as §1, §2

[3] = substrate: CC(C)C[C@H](NC(=O)[C@H](CCCNC(=N)N)NC(=O)[C@H](CCCNC(=N)N)NC(=O)[C@@H](N)CCCNC(=N)N)C(=O)N[C@@H](CO)C(=O)N[C@@H](Cc1ccccc1)C(=O)N[C@@H](C)C(=O)N[C@@H](CCC(=O)O)C(=O)N1CCC[C@H]1C(=O)NCC(=O)O; type: biochemical, bovine; conditions: other: PKG; Standard Substrate = …; 30.0 °C
Source text: as §1, with “RSK).” for “RSK). GST-fusion proteins were purified on GSH-agarose (Amersham Pharmacia Biotech, Amersham, UK) and His-tagged proteins on Ni-NTA agarose (Qiagen) essentially according to the manufacturer's instructions. All the protein kinases used in this study are available from Upstate Biotechnology Inc. (Lake Placid, N.Y., USA), apart from the α-isoform of calmodulin-dependent protein kinase II (CaMKII), MAPKAP-K3 and PKG.”
as §2

B1: PRAK (Homo sapiens) (protein)
chain: MSEESDMDKAIKETSILEEYSINWTQKLGAGISGPVRVCVKKSTQERFALKILLDRPKARNEVRLHMMCATHPNIVQIIEVFANSVQFPHESSPRARLLIVMEMMEGGELFHRISQHRHFTEKQASQVTKQIALALRHCHLLNIAHRDLKPENLLFKDNSLDAPVKLCDFGFAKIDQGDLMTPQFTPYYVAPQVLEAQRRHQKEKSGIIPTSPTPYTYNKSCDLWSLGVIIYVMLCGYPPFYSKHHSRTIPKDMRRKIMTGSFEFPEEEWSQISEMAKDVVRKLLKVKPEERLTIEGVLDHPWLNSTEALDNVLPSAQLMMDKAVVAGIQQAHAEQLANMRIQDLKVSLKPLHSVNNPILRKRKLLGTKPKDSVYIHDHENGAEDSNVALEKLRDVIAQCILPQAGKGENEDEKLNEVMQEAWKYNRECKLLRDTLQSFSWNGRGFTDKVDRLKLAEIVKQVIEEQTTSHESQ
notes: made in house; host or cells: Sf21 insect cells
B1 gave a Km [1] of 40 µM.

B2: SGK1 (Homo sapiens; S422D) (protein)
chain: ISQPQEPELMNANPSPPPSPSQQINLGPSSNPHAKPSDFHFLKVIGKGSFGKVLLARHKAEEVFYAVKVLQKKAILKKKEEKHIMSERNVLLKNVKHPFLVGLHFSFQTADKLYFVLDYINGGELFYHLQRERCFLEPRARFYAAEIASALGYLHSLNIVYRDLKPENILLDSQGHIVLTDFGLCKENIEHNSTTSTFCGTPEYLAPEVLHKQPYDRTVDWWCLGAVLYEMLYGLPPFYSRNTAEMYDNILNKPLQLKPNITNSARHLLEGLLQKDRTKRLGAKDDFMEIKSHVFFSLINWDDLINKKITPPFNPNVSGPNDLRHFDPEFTEEPVPNSIGKSPDSVLVTASVKEAAEAFLGFDYAPPTDSFL
notes: as for B1
B2 showed a Km ([2]; other: SGK1, Standard Substrate = …) of 4 µM.

B3: S6K1 (Homo sapiens; T412E) (protein)
chain: MRRRRRRDGFYPAPDFRDREAEDMAGVFDIDLDQPEDAGSEDELEEGGQLNESMDHGGVGPYELGMEHCEKFEISETSVNRGPEKIRPECFELLRVLGKGGYGKVFQVRKVTGANTGKIFAMKVLKKAMIVRNAKDTAHTKAERNILEEVKHPFIVDLIYAFQTGGKLYLILEYLSGGELFMQLEREGIFMEDTACFYLAEISMALGHLHQKGIIYRDLKPENIMLNHQGHVKLTDFGLCKESIHDGTVTHTFCGTIEYMAPEILMRSGHNRAVDWWSLGALMYDMLTGAPPFTGENRKKTIDKILKCKLNLPPYLTQEARDLLKKLLKRNAASRLGAGPGDAGEVQAHPFFRHINWEELLARKVEPPFKPLLQSEEDVSQFDSKFTRQTPVDSPDDSTLSESANQVFLGFEYVAPSVLES
notes: as for B1
In the case of B3, the Km ([2]; other: S6K1, Standard Substrate = LRRASLG) is reported as 6 µM.

B4: PKG (Bos taurus) (protein)
chain: MSELEEDFAKILMLKEERIKELEKRLSEKEEEIQELKRKLHKCQSVLPVPSTHIGPRTTRAQGISAEPQTYRSFHDLRQAFRKFTKSERSKDLIKEAILDNDFMKNLELSQIQEIVDCMYPVEYGKDSCIIKEGDVGSLVYVMEDGKVEVTKEGVKLCTMGPGKVFGELAILYNCTRTATVKTLVNVKLWAIDRQCFQTIMMRTGLIKHTEYMEFLKSVPTFQSLPEEILSKLADVLEETHYENGEYIIRQGARGDTFFIISKGKVNVTREDSPNEDPVFLRTLGKGDWFGEKALQGEDVRTANVIAAEAVTCLVIDRDSFKHLIGGLDDVSNKAYEDAEAKAKYEAEAAFFANLKLSDFNIIDTLGVGGFGRVELVQLKSEESKTFAMKILKKRHIVDTRQQEHIRSEKQIMQGAHSDFIVRLYRTFKDSKYLYMLMEACLGGELWTILRDRGSFEDSTTRFYTACVVEAFAYLHSKGIIYRDLKPENLILDHRGYAKLVDFGFAKKIGFGKKTWTFCGTPEYVAPEIILNKGHDISADYWSLGILMYELLTGSPPFSGPDPMKTYNIILRGIDMIEFPKKIAKNAANLIKKLCRDNPSERLGNLKNGVKDIQKHKWFEGFNWEGLRKGTLTPPIIPSVASPTDTSNFDSFPEDNDEPPPDDNSGWDIDF
notes: which were isolated from rat liver, bovine lung and bovine heart, respectively; from tissue; host or cells: bovine lung
With B4 the Km [3] was 50 µM.
